Experimental data taken from PMC7294595 (2020).
[ ]: non-standard residue; d: D form. CPP12 = cyclic cell-penetrating peptide fused at the N-terminus; pY = N[C@@H](Cc1ccc(OP(=O)(O)O)cc1)C(=O)O; βAla = NCCC(=O)O

Columns and labels:
[1] = target: T1, ac-pTyr (gp130-derived phosphopeptide) (Homo sapiens); assay: competition fluorescence polarization
T1 chain: Ac-G[pY]LPQTV-NH2

CPP12-pTyr = target: T2, CPP12-pTyr (Homo sapiens, not fully specified); assay: competition fluorescence polarization
T2 chain: {CPP12-βAla-βAla}-G[pY]LPQTV-NH2

B1: STAT3 127-711 (protein)
chain: GQANHPTAAVVTEKQQMLEQHLQDVRKRVQDLEQKMKVVENLQDDFDFNYKTLKSQGDMQDLNGNNQSVTRQKMQQLEQMLTALDQMRRSIVSELAGLLSAMEYVQKTLTDEELADWKRRQQIACIGGPPNICLDRLENWITSLAESQLQTRQQIKKLEELQQKVSYKGDPIVQHRPMLEERIVELFRNLMKSAFVVERQPCMPMHPDRPLVIKTGVQFTTKVRLLVKFPELNYQLKIKVCIDKDSGDVAALRGSRKFNILGTNTKVMNMEESNNGSLSAEFKHLTLREQRCGNGGRANCDASLIVTEELHLITFETEVYHQGLKIDLETHSLPVVVISNICQMPNAWASILWYNMLTNNPKNVNFFTKPPIGTWDQVAEVLSWQFSSTTKRGLSIEQLTTLAEKLLGPGVNYSGCQITWAKFCKENMAGKGFSFWVWLDNIIDLVKKYILALWNEGYIMGFISKERERAILSTKPPGTFLLRFSESSKEGGVTFTWVEKDISGKTQIQSVEPYTKQQLNNMSFAEIIMGYKIMDATNILVSPLVYLYPDIPKEEAFGKYCRPESQEHPEADPGSAAPYLKTKFI
Q: B1 was tested. Which IC50 [1] did it give?
A: Its IC50 is 610 nM.

Q: What about the IC50 (CPP12-pTyr) of the same binder?
A: Its IC50 is 410 nM.
